B1: Telomere length regulator protein RIF1 (Saccharomyces cerevisiae), P29539 (parent)
chain: MSKDFSDKKKHTIDRIDQHILRRSQHDNYSNGSSPWMKTNLPPPSPQAHMHIQSDLSPTPKRRKLASSSDCENKQFDLSAINKNLYPEDTGSRLMQSLPELSASNSDNVSPVTKSVAFSDRIESSPIYRIPGSSPKPSPSSKPGKSILRNRLPSVRTVSDLSYNKLQYTQHKLHNGNIFTSPYKETRVNPRALEYWVSGEIHGLVDNESVSEFKEIIEGGLGILRQESEDYVARRFEVYATFNNIIPILTTKNVNEVDQKFNILIVNIESIIEICIPHLQIAQDTLLSSSEKKNPFVIRLYVQIVRFFSAIMSNFKIVKWLTKRPDLVNKLKVIYRWTTGALRNENSNKIIITAQVSFLRDEKFGTFFLSNEEIKPIISTFTEIMEINSHNLIYEKLLLIRGFLSKYPKLMIETVTSWLPGEVLPRIIIGDEIYSMKILITSIVVLLELLKKCLDFVDEHERIYQCIMLSPVCETIPEKFLSKLPLNSYDSANLDKVTIGHLLTQQIKNYIVVKNDNKIAMDLWLSMTGLLYDSGKRVYDLTSESNKVWFDLNNLCFINNHPKTRLMSIKVWRIITYCICTKISQKNQEGNKSLLSLLRTPFQMTLPYVNDPSAREGIIYHLLGVVYTAFTSNKNLSTDMFELFWDHLITPIYEDYVFKYDSIHLQNVLFTVLHLLIGGKNADVALERKYKKHIHPMSVIASEGVKLKDISSLPPQIIKREYDKIMKVVFQAVEVAISNVNLAHDLILTSLKHLPEDRKDQTHLESFSSLILKVTQNNKDTPIFRDFFGAVTSSFVYTFLDLFLRKNDSSLVNFNIQISKVGISQGNMTLDLLKDVIRKARNETSEFLIIEKFLELDDKKTEVYAQNWVGSTLLPPNISFREFQSLANIVNKVPNENSIENFLDLCLKLSFPVNLFTLLHVSMWSNNNFIYFIQSYVSKNENKLNVDLITLLKTSLPGNPELFSGLLPFLRRNKFMDILEYCIHSNPNLLNSIPDLNSDLLLKLLPRSRASYFAANIKLFKCSEQLTLVRWLLKGQQLEQLNQNFSEIENVLQNASDSELEKSEIIRELLHLAMANPIEPLFSGLLNFCIKNNMADHLDEFCGNMTSEVLFKISPELLLKLLTYKEKPNGKLLAAVIEKIENGDDDYILELLEKIIIQKEIQILEKLKEPLLVFFLNPVSSNMQKHKKSTNMLRELVLLYLTKPLSRSAAKKFFSMLISILPPNPNYQTIDMVNLLIDLIKSHNRKFKDKRTYNATLKTIGKWIQESGVVHQGDSSKEIEAIPDTKSMYIPCEGSENKLSNLQRKVDSQDIQVPATQGMKEPPSSIQISSQISAKDSDSISLKNTAIMNSSQQESHANRSRSIDDETLEEVDNESIREIDQQMKSTQLDKNVANHSNICSTKSDEVDVTELHESIDTQSSEVNAYQPIEVLTSELKAVTNRSIKTNPDHNVVNSDNPLKRPSKETPTSENKRSKGHETMVDVLVSEEQAVSPSSDVICTNIKSIANEESSLALRNSIKVETNCNENSLNVTLDLDQQTITKEDGKGQVEHVQRQENQESMNKINSKSFTQDNIAQYKSVKKARPNNEGENNDYACNVEQASPVRNEVPGDGIQIPSGTILLNSSKQTEKSKVDDLRSDEDEHGTVAQEKHQVGAINSRNKNNDRMDSTPIQGTEEESREVVMTEEGINVRLEDSGTCELNKNLKGPLKGDKDANINDDFVPVEENVRDEGFLKSMEHAVSKETGLEEQPEVADISVLPEIRIPIFNSLKMQGSKSQIKEKLKKRLQRNELMPPDSPPRMTENTNINAQNGLDTVPKTIGGKEKHHEIQLGQAHTEADGEPLLGGDGNEDATSREATPSLKVHFFSKKSRRLVARLRGFTPGDLNGISVEERRNLRIELLDFMMRLEYYSNRDNDMN
partner: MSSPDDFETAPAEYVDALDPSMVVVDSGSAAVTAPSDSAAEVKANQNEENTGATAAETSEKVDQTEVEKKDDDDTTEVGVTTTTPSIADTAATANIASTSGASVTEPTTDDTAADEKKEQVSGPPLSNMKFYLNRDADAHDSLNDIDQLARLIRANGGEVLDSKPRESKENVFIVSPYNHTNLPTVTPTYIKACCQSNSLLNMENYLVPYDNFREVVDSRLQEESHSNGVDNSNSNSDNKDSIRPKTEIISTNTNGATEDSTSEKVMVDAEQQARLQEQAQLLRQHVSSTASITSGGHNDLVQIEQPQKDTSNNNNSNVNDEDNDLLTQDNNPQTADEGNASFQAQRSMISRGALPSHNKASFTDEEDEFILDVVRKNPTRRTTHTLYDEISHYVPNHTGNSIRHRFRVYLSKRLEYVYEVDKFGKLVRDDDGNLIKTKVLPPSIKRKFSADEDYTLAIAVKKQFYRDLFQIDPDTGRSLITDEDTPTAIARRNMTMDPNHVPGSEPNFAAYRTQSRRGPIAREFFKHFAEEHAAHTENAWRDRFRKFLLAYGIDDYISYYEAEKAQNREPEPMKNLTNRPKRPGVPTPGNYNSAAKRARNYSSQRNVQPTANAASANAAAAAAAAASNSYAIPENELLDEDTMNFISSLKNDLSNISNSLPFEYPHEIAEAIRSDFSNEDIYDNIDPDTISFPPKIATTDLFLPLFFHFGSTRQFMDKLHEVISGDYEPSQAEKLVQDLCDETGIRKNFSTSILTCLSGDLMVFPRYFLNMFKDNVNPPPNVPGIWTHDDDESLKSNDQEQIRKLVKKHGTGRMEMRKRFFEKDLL
B2: DNA-binding protein RAP1 (Saccharomyces cerevisiae), P11938 (parent)
chain: B1 partner

Variants of: B1
Conditions: with rap1_yeast RAP1, P11938

Variant	effect of a mutation on the interaction
I1760R	disrupting interaction strength
L1905R	disrupting interaction strength
I1764R	disrupting interaction strength
I1762R	disrupting interaction strength
R1895E	decreasing interaction strength

Variants of: B1
Conditions: with rap1_yeast RAP1, P11938
Remark: another data set of the same source

Variant	effect of a mutation on the interaction
L1905R	decreasing interaction strength

Variants of: B2
Conditions: with rif1_yeast RIF1, P29539

Variant	effect of a mutation on the interaction
A733R	disrupting interaction strength
G760R	disrupting interaction strength

Reference: IntAct's records for PubMed 23746845
